For six molecules, Kd and RU results are on record in patent EP4545559A2 (INSTITUTO BUTANTAN, dated 2025).

The target in experiment [1] is T1, RBD Gamma (K417T/E484K/N501Y) (SARS-CoV-2, UniProt P0DTC2 319-541).
T1 construct: domain: RBD
The experiment is described as follows: SPR kinetics; *** did not dissociate until 36000sec.

Experiment [2] concerns the target T2, RBD Delta (L452R/T478K) (SARS-CoV-2, UniProt P0DTC2 319-541).
T2 construct: domain: RBD
Put plainly: SPR, antigen on CM5 sensor.

In experiment [3] the target is T1, RBD Gamma (K417T/E484K/N501Y). The experiment is described as follows: SPR, antigen on CM5 sensor.
In experiment [4] the target is T3, RBD Omicron (G339D, S371L, S373P, S375F, K417N, N440K, G446S, S477N, T478K, E484A, Q493R, G496S, Q49 (SARS-CoV-2, UniProt P0DTC2 319-541)).
T3 construct: range 319-541
The experiment is described as follows: SPR, antigen on CM5 sensor.

Experiment [5] has as its target T2, RBD Delta (L452R/T478K). The experiment is described as follows: SPR kinetics; * dissociation in 360sec.
In experiment [6] the target is T3, RBD Omicron (G339D, S371L, S373P, …). Put plainly: SPR kinetics; * dissociation in 360sec.
Experiment [7] shares this target. The experiment is described as follows: SPR kinetics; ** dissociation in 36000sec.
For experiment [8], the target named is T2, RBD Delta (L452R/T478K). Put plainly: SPR, antigen on CM5 sensor. The source holds these as a separate data set.
For experiment [9], the target named is T1, RBD Gamma (K417T/E484K/N501Y). The experiment is described as follows: SPR, antigen on CM5 sensor. This is another data set of the same source.
Experiment [10] concerns the target T3, RBD Omicron (G339D, S371L, S373P, …). Put plainly: SPR, antigen on CM5 sensor. The source holds these as a separate data set.
Experiment [11] deals with T2, RBD Delta (L452R/T478K). The experiment is described as follows: SPR kinetics; *** did not dissociate until 36000sec.
The target in experiment [12] is T1, RBD Gamma (K417T/E484K/N501Y). The experiment is described as above. This is another data set of the same source.
Experiment [13] concerns the target T2, RBD Delta (L452R/T478K). Put plainly: SPR, antigen on CM5 sensor. The source holds these as a separate data set.
The target of experiment [14] is T1, RBD Gamma (K417T/E484K/N501Y). Put plainly: SPR, antigen on CM5 sensor. This is another data set of the same source.
Experiment [15] addresses T3, RBD Omicron (G339D, S371L, S373P, …). The experiment is described as follows: SPR, antigen on CM5 sensor. The source holds these as a separate data set.
The target in experiment [16] is T2, RBD Delta (L452R/T478K). Put plainly: SPR kinetics; *** did not dissociate until 36000sec. This is another data set of the same source.
Experiment [17] concerns the target T1, RBD Gamma (K417T/E484K/N501Y). Described as above. This is another data set of the same source.
Experiment [18] deals with T3, RBD Omicron (G339D, S371L, S373P, …). Put plainly: SPR kinetics; * dissociation in 360sec. This is another data set of the same source.
The target of experiment [19] is T2, RBD Delta (L452R/T478K). Put plainly: SPR kinetics; *** did not dissociate until 36000sec. The source holds these as a separate data set.
Experiment [20] concerns the target T1, RBD Gamma (K417T/E484K/N501Y). The description is as above. The source holds these as a separate data set.
For experiment [21], the target named is T2, RBD Delta (L452R/T478K). Put plainly: SPR, antigen on CM5 sensor. This is another data set of the same source.
The target of experiment [22] is T1, RBD Gamma (K417T/E484K/N501Y). Put plainly: SPR, antigen on CM5 sensor. This is another data set of the same source.
Experiment [23] concerns the target T3, RBD Omicron (G339D, S371L, S373P, …). The experiment is described as follows: SPR, antigen on CM5 sensor. The source holds these as a separate data set.
For experiment [24] the target is unchanged. Put plainly: SPR kinetics; * dissociation in 360sec. This is another data set of the same source.
The target in experiment [25] is T2, RBD Delta (L452R/T478K). Put plainly: SPR, antigen on CM5 sensor. The source holds these as a separate data set.
The target of experiment [26] is T1, RBD Gamma (K417T/E484K/N501Y). Put plainly: SPR, antigen on CM5 sensor. This is another data set of the same source.
The target of experiment [27] is T3, RBD Omicron (G339D, S371L, S373P, …). Put plainly: SPR, antigen on CM5 sensor. This is another data set of the same source.
In experiment [28] the target is T2, RBD Delta (L452R/T478K). The experiment is described as follows: SPR kinetics; *** did not dissociate until 36000sec. The source holds these as a separate data set.
Experiment [29] addresses T1, RBD Gamma (K417T/E484K/N501Y). The description is as above. The source holds these as a separate data set.
Experiment [30] deals with T3, RBD Omicron (G339D, S371L, S373P, …). The description is as above.
For experiment [31], the target named is T1, RBD Gamma (K417T/E484K/N501Y). The experiment is described as above. This is another data set of the same source.
The target in experiment [32] is T3, RBD Omicron (G339D, S371L, S373P, …). The description is as above. This is another data set of the same source.
Experiment [33] has as its target T2, RBD Delta (L452R/T478K). The experiment is described as follows: SPR kinetics; ** dissociation in 36000sec.
Experiment [34] has as its target T2, RBD Delta (L452R/T478K). The experiment is described as follows: SPR, antigen on CM5 sensor. The source holds these as a separate data set.
The target of experiment [35] is T1, RBD Gamma (K417T/E484K/N501Y). Put plainly: SPR, antigen on CM5 sensor. The source holds these as a separate data set.
Experiment [36] concerns the target T3, RBD Omicron (G339D, S371L, S373P, …). The experiment is described as follows: SPR, antigen on CM5 sensor. This is another data set of the same source.

Like-named read-outs stand apart in the source and are kept apart here.

B1: Monoclonal antibody S.11.1.D12 (antibody, V domains shown)
VH: EVQLLESGGGLVQPGGSLRLSCAASGFPFITYPMSWVRQAPGKGLEWVSDIGGIGGSTSYADSVKGRFTISRDNYQNTVYLQMHSLRAEDTAVYYCAKWKSRVDSSYKGGGWFDSWGPGTLVTVSS
VL: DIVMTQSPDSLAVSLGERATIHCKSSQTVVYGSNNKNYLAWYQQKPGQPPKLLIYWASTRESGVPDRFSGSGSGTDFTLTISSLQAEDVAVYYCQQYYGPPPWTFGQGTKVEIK
notes: also called mAb S.11.1.D12
As to B1, the Kd in experiment [1] was approximately 11 nM; in [5], 0.636 nM; in experiment [6], 3.73 nM. Besides, the RU in [2] came out at 771 RU; in experiment [3], 44 RU; in experiment [4], 145 RU.

B2: Monoclonal antibody S.9.4.F4 (antibody, V domains shown)
VH: QVQLVESGGGVVQPGRSLRLSCAASGFTFSHYGMHWVRQAPGKGLEWVAVILYDGSNEYYADSVKGRFTISRDNSKNTLYLQMNSLRAEDTAVYYCAKGAGTYCSGGNCYVAYFDYWGQGTLVTVSS
VL: AIRMTQSPSSLSASVGDRVTITCQASQDISNYLNWYQQKPGKAPKLLIYDASNLETGVPSRFSGSGSGTDFTVTISSLQPEDFATYYCQQYDNLPLTFGGGTKVEIK
notes: also called mAb S.9.4.F4
Regarding B2, the Kd in experiment [7] is 0.231 nM; in [11] it was approximately 1.22 pM; in [12], approximately 0.0187 nM. Moreover, the RU in experiment [8] amounted to 373 RU; in experiment [9] it was 160 RU; in experiment [10] it was 74 RU.

B3: Monoclonal antibody S.11.1.C8 (antibody, V domains shown)
VH: QVQLVESGGGVVQPGRSLRLSCAASGFTFSTFSMHWVRQAPGKGLEWVAVILYDGTYKSYADSVKGRFTISRDNSGNTLFLQMNSLRAEDSAVYYCARDFGEMTTYFDFWGQGTLVTVSS
VL: DIQMTQPPSSLSASVGDRVTITCRASQSIGNNLNWYQQKPGKAPKLLIYVASSLQSGVPSRFSGSGSGTDFTLTISSLQPEDFATYFCQQSYSTPPWTFGQGTKVEIK
notes: also called mAb S.11.1.C8
Regarding B3, the RU in [13] is 799 RU; in experiment [14], 360 RU; in experiment [15], 166 RU. The figures for the Kd in [16], in experiment [17] and in [18] were approximately 0.0131 nM, approximately 0.103 nM and 0.615 nM, respectively.

B4: Monoclonal antibody S.9.4.C7 (antibody, V domains shown)
VH: QVQLVESGGGVVQPGRSLRLSCAASGFTFRNYAMHWVRQAPGKGLEWVTVISYDGSDKYYADSVKGRFTISRDNSKNTLYLQMNSLRAEDTAVYYCAKDPVGGYCSGGRCYFHSHYFDYWGQGTLVTVSS
VL: NFMLTQPHSVSESPGKTVTISCTRSSGSIASYYVQWYQQRPGSSPTTVISEDNQRPSGVPDRFSGSIDSSSNSASLTISGLKTEDEADYYCQSYDSNNHVIFGGGTKLTVL
notes: also called mAb S.9.4.C7
With B4, the equilibrium dissociation constant (Kd) was approximately 0.14 nM in experiment [19], approximately 0.205 nM in [20] and 1.31 nM in experiment [24]. Moreover, the RU in experiment [21] stood at 1150 RU; in [22], 481 RU; in experiment [23], 160 RU.

B5: Monoclonal antibody S.10.1.C6 (antibody, V domains shown)
VH: QLQLQESGPGLVKPSETLSLTCTVSGGSISSSSYYWGWIRQPPGKGLEWIGSFYYSGGSYYNPSLKSRVTISVDTSKNQFSLKLSSVTAADTAVYYCARDEHGDYAVGYWGQGTLVTVSS
VL: QSVLTQPPSVSGAPGQRVTISCTGSSSNIGAGYDVHWYQQLPGTAPKLLIYGNNNRPSGVPDRFSGSKSGTSASLAITGLQAEDEADYYCQSYDSSLSALYVFGTGTKVTVL
notes: also called S.10.1.C6 mAb
Consider B5, for which the RU is 343 RU in [25], 134 RU in experiment [26] and 66 RU in experiment [27]. Also, the Kd is approximately 8.12 pM in experiment [28], approximately 0.235 nM in experiment [29] and approximately 0.804 nM in [30].

B6: Monoclonal antibody S.9.2.D7 (antibody, V domains shown)
VH: EVQLLESGGGLIQTGGSLRLSCAASGFTFSSYAMSWVRQAPGKGLEWVSVISDSGGSTYYADSVKGRLTISRDNSKNTLYVQMNSLRAEDTAVYYCAKGKGGIAAAGPAFLFDYWGQGTLVTVSS
VL: DIQMTQSPSLLSASAGDRVTISCRMSQGISSYLAWYQQKPGKAPELLISSASTLQSGVPSRFSGSGSGTDFTLTISYLQSEDFATYYCQQYYSFPTTFGGGTKVEIK
notes: also called mAb S.9.2.D7
For the molecule B6, the Kd in experiment [31] was approximately 0.237 pM; in [32] it was approximately 6.29 pM; in [33] it was 1.84 pM. Moreover, the RU came out at 0 RU in experiment [34], 50 RU in experiment [35] and 0 RU in experiment [36].
